The assay deals with T1, TEAD.
T1 chain: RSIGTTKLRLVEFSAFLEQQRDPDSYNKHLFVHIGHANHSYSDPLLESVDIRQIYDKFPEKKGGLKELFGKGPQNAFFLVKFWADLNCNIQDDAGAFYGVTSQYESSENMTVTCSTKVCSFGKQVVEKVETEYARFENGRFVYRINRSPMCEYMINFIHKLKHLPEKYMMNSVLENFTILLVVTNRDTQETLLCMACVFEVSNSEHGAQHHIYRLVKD
Kind of assay: IC50 for TEAD binding (TR-FRET test). (Time-resolved FRET reads energy transfer from a long-lived donor to a nearby acceptor.)

Bridges are numbered along the chain shown (N, C = ends). Where no end group is shown, it is not given here. [ ]: non-standard residue; d: D form. hCys = N[C@@H](CCS)C(=O)O

As usually defined, the IC50 is the concentration that inhibits the measured activity by half. A lower IC50 goes with greater potency. Turning to VPM[hCys]LRKLPCSFCDPPE (disulfide 4-13) [polypeptide represented by SEQ ID NO.: 9], the IC50 stood at 25 nM.

VPMCLRKLPESFCHPPE (disulfide 4-13) [polypeptide represented by SEQ ID NO.: 8] returned an IC50 of 28 nM.

The values above are taken from patent US20160272690A1 (BAO KANG BIOMEDICAL HEALTHCARE, published 2016).
